The record followed here is patent US20060239998A1.

Experiment [1] deals with polyclonal antibodies of the patient from whom BO2C11 was derived. The experiment is described as follows: cell-based or functional assay.
Experiment [2] concerns the target Factor VIII (human recombinant FVIII) (human) (UniProt P00451). Nature of the experiment: cell-based or functional assay.
Experiment [3] has as its target human monoclonal antibody BO2C11, FVIII-specific IgG4kappa inhibitory antibody against the C2 domain. Nature of the experiment: cell-based or functional assay.
Experiment [4] shares this target. The experiment is described as follows: surface plasmon resonance.
Experiment [5] deals with BO2C11 surface antibody on the BO2C11 lymphoblastoid B-cell line. Nature of the experiment: flow cytometry on the BO2C11 lymphoblastoid cell line, 1 or 10 µg/ml antibody, anti-mouse IgG-FITC. On the technique in general: Flow cytometry measures light scatter and fluorescence of single cells or particles in a stream.
Experiment [6] addresses polyclonal antibodies of 6 unrelated patients with haemophilia A and inhibitor towards the C2 domain. The experiment is described as follows: immunoprecipitation of radiolabelled C2 domain with patient polyclonal antibodies and protein A Sepharose; Ab 14C12 added at increasing concentration.

Factor VIII (human recombinant FVIII) (human), sequence (P00451 20-2351): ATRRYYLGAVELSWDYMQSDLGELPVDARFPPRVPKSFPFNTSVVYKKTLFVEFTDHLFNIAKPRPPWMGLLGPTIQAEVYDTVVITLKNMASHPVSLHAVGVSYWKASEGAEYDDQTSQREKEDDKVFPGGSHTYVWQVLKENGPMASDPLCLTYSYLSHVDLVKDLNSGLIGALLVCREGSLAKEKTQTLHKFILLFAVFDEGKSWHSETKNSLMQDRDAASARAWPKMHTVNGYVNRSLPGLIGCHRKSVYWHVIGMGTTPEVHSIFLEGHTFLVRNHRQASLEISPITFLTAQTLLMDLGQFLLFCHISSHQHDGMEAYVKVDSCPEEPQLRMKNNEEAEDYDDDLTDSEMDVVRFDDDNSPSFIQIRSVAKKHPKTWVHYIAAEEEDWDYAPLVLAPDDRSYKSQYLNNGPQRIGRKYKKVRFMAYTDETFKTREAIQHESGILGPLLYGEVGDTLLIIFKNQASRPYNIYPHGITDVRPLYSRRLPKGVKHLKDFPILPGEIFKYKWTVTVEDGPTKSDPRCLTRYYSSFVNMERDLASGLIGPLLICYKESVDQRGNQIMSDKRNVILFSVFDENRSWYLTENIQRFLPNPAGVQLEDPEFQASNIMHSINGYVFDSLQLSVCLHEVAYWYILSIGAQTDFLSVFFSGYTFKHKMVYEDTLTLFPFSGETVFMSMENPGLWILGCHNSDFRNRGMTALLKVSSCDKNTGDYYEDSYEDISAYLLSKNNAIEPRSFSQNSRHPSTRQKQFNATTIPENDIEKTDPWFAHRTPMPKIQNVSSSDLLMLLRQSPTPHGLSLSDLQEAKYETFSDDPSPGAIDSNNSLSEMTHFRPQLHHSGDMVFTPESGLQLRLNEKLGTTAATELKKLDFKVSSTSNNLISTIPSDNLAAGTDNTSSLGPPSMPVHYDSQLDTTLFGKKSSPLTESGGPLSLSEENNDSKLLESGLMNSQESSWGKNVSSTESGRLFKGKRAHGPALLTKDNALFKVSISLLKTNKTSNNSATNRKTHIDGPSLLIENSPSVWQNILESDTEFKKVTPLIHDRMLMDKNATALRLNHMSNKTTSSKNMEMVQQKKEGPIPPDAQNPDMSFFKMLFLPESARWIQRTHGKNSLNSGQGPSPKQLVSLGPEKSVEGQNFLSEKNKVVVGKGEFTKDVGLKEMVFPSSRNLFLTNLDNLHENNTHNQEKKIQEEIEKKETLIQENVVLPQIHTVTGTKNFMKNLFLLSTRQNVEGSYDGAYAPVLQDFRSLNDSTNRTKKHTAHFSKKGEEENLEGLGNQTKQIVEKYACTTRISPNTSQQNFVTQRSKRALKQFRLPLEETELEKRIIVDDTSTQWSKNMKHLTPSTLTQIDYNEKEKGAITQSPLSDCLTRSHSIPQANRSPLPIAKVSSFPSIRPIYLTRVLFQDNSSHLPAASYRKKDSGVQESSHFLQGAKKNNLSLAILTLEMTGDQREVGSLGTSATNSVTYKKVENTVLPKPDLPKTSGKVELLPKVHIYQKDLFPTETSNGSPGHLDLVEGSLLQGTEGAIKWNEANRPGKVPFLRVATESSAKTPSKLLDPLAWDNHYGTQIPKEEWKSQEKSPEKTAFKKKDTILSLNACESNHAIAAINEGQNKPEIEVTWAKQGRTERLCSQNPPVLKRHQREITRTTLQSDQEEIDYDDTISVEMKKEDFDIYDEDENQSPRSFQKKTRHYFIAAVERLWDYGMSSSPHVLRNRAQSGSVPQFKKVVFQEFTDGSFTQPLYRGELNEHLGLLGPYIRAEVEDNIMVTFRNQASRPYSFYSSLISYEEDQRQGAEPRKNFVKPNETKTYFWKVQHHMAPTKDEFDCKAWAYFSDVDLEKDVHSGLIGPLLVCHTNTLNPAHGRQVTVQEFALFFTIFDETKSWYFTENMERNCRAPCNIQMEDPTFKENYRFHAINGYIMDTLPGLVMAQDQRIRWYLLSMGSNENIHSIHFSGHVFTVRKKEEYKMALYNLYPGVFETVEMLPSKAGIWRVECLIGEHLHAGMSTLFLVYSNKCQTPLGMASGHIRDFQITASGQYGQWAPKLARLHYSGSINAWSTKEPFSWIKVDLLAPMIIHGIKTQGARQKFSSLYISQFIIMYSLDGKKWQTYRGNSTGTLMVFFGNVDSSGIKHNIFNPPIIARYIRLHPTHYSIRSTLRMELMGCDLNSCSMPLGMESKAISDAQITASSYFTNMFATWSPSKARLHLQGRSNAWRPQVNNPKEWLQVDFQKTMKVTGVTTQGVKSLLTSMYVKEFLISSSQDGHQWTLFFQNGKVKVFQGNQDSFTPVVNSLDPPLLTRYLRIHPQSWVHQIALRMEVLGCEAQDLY

B1: anti-idiotypic antibody Ab 14C12 obtained from cell line 14C12 (LMBP 5878CB) (antibody, V domains shown)
VH: EVQLQQSGPELVKPGASVKLSCKASGYTFTSSVMHWLKQKSGQGLEWIGYINPYNDGTKYNEKFTAKATLTSDKSSSTVYMELSGLTSEDFAVYYCARSGGLLRGYWYFDVWGAGTTVTVSSAKTTAPSVYPLVPGC
VL: DLVLTQSPATLSVTPGDSVSLSCRASQDITNTLHWYHQKSHESPRLLIKYVSQSISGIPSRFSGSGSGTVFTLSINSVETEDFGVYFCQQSTSWPYTFGGGTKLEIKRADAAPTVSIFPPSSE
As for B1, the neutralisation of polyclonal anti-FVIII antibodies (chromogenic assay) (% neutralisation) in experiment [1] is < 60.

B2: human monoclonal antibody BO2C11, FVIII-specific IgG4kappa inhibitory antibody against the C2 domain (antibody, from another filing, V domains shown)
VH: QVQLVQSGAEVKKPGASVKVSCKVSGYTLTELPVHWVRQAPGKGLEWVGSFDPESGESIYAREFQGSVTMTADTSTDIAYMELSSLRSDDTAVYYCAVPDPDAFDIWGQGTMVTVSS
VL: EIALTQSPGTLSLSPGERATLSCRASQSFSSSYLAWYQQKPGQAPRLLIYGASTRATGIPDRFSGSGSGTDFTLTISRLEPEDFAVYYCQKYGTSAITFGQGTRLEIK
Turning to B2, in experiment [2], the inhibition of FVIII procoagulant activity in FVIII-/- mice (% inhibition at 0.5 µg BO2C11) stood at 98 and the inhibition of FVIII-dependent substrate conversion (Faktor VIII chromogen test) (% inhibition at 0.1 µg/ml BO2C11) was 100.

B3: anti-idiotypic antibody Ab 14C12 obtained from cell line 14C12 (LMBP 5878CB) (antibody, V domains shown)
VH: EVQLQQSGPELVKPGASVKLSCKASGYTFTSSVMHWLKQKSGQGLEWIGYINPYNDGTKYNEKFTAKATLTSDKSSSTVYMELSGLTSEDFAVYYCARSGGLLRGYWYFDVWGAGTTVTVSS
VL: DLVLTQSPATLSVTPGDSVSLSCRASQDITNTLHWYHQKSHESPRLLIKYVSQSISGIPSRFSGSGSGTVFTLSINSVETEDFGVYFCQQSTSWPYTFGGGTKLEIKR
The koff is the first-order rate constant of dissociation. B3: the in vivo neutralisation of BO2C11-mediated FVIII inhibition in FVIII-/- mice (% neutralisation at equimolar ratio) in experiment [3] amounted to 50. Further, in experiment [3] (scale: % neutralisation at a '11' molar ratio), the neutralisation of BO2C11 inhibitory capacity (chromogenic assay) is 50. In experiment [3] (scale: molar excess of Ab 14C12 over BO2C11 for full neutralisation), this molecule yielded an in vivo neutralisation of BO2C11-mediated FVIII inhibition in FVIII-/- mice of 3.5. Further, in experiment [4], the off-rate (koff) was 1e-05 s⁻¹. This molecule had a percent of cells positive in experiment [5] of 68%. Moreover, the percent neutralisation in experiment [6] is 50%.
